These results are taken from publication PMC8488193, “Characterization of a Novel Glutamine Synthetase From Trichinella spiralis and Its Participation in Larval Acid Resistance, Molting, and Development” (Frontiers in Cell and Developmental Biology, 2021).

Data set [1] addresses T1, rTsGS (Trichinella spiralis, UniProt A0ABR3KY69).
T1 construct: gene TSPI_06310
T1 sequence (A0ABR3KY69 1-365): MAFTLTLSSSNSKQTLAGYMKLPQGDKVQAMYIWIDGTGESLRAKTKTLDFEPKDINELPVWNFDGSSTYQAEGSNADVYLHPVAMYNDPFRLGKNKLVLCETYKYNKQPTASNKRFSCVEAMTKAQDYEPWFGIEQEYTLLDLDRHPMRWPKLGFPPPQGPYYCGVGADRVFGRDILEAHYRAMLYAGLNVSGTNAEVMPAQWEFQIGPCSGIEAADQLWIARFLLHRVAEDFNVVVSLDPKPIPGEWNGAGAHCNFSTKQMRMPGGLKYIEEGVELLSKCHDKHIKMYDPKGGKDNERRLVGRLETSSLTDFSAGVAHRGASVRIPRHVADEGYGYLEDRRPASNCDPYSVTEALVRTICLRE
Kind of data set: phosphate release, absorbance at […] nm, with inhibitor. Type of data set: biochemical. Conditions: substrates Glu, ATP, NH4+.

In data set [2] the test system is N. The experiment in a line: purified protein. Conditions: pH 7.0, 45 °C, 100 mM Mg2+, glutamate and ATP as co-substrates, range 0.5-5 mM.
Data set [3] concerns N[C@@H](CCC(=O)O)C(=O)O. Kind of data set: purified protein. It counts as biochemical, Trichinella spiralis. The note with it: pH 7.0, 45 °C, 100 mM Mg2+, ATP and NH4+ as co-substrates, range 0.5-5 mM.

Take `CP(=O)(O)CCC(N)C(=O)O` (stereo not drawn) [glufosinate]: the “inhibition at 10% glufosinate” value in data set [1] is “Both EDTA and glufosinate could inhibit the rTsGS enzyme activity”. Consider rTsGS (Trichinella spiralis), for which the results for the Km in data set [2] and in data set [3] were 170 µM and 200 µM, respectively.

A word on the Km: it is the substrate concentration at which the rate is half of its maximum.
